According to patent US5686592, “High-affinity oligonucleotide ligands to immunoglobulin E (IgE)” (NeXstar Pharmaceuticals, Inc.):

Experiments:
Conditions in all cases: tags: Athens Research Technology; chain copies: 2; label: 5' 32P
human IgE [1] = biological target: T1, human IgE (Homo sapiens, UniProt P01854-1 P01854-1:1-428); assay: filter; modified PBS, 1 mM Mg2+, 37 C; D2.0 taken as clone D002
Description: Affinities of representative DNA ligands for human IgE were determined by nitrocellulose filter binding experiments and the K_Ds are listed in Table 7. […] Individual clones tested from this pool have affinities in the same range. The affinities were not expected to vary widely since the enriched DNA pool is very homogenous. Ligand D17.0 was picked for truncation experiments. […] However, the affinity could be restored to the level of the full-length ligand by the addition of a 4 basepair stem resulting in the 37 base truncate D17.4. It is possible that the stem in D17.1 is not stable enough to prevent the formation of an alternative secondary structure and that the additional base pair in D17.4 lock in the conformation necessary for IgE binding.

human IgE [2] = biological target: T1, human IgE; assay: filter; modified PBS, 1 mM Mg2+, 37 C; D11.0 taken as clone D011
human IgE [3] = biological target: T1, human IgE; assay: filter; modified PBS, 1 mM Mg2+, 37 C; D31.0 taken as clone D031

T1 sequence (P01854 other isoform, or with tags, fused parts or gaps): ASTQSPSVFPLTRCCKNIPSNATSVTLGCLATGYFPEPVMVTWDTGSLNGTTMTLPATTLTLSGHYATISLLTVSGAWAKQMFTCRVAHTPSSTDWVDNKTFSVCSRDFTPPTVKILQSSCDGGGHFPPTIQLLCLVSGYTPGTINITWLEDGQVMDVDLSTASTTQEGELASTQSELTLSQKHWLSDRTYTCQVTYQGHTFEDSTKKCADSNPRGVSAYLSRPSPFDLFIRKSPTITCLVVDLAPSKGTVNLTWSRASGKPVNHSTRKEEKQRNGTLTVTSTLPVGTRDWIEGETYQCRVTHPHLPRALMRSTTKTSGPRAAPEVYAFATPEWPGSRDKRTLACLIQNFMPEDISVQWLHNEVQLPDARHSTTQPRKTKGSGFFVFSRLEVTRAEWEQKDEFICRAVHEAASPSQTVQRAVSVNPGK

B1: D2.0 (ssDNA)
DNA: CTACCTACGATCTGACTAGCGGCCGGAGCTTTATCCGTTACTCTCAGTGGGTGACTGTCGCTTACTCTCATGTAGTTCC
With B1 the Kd (human IgE [1]) was 6 nM.

B2: D11.0 (ssDNA)
DNA: CTACCTACGATCTGACTAGCACCGGAGTACTTCATCCGTCCCTTCTAGTGGGTACCCGTAGCTTACTCTCATGTAGTTCC
Binder B2 has a Kd (human IgE [2]) of 8 nM.

B3: D31.0 (ssDNA)
DNA: CTACCTACGATCTGACTAGCACGGGTGAGTTGATCCGTCACTCTTAGTGGTGAACCTTGTGCTTACTCTCATGTAGTTCC
Binder B3 has a Kd (human IgE [3]) of 22 nM.
